# Assay results from patent publication US20210171647A1 (WUXI BIOLOGICS SHANGHAI, published 2021).
# Residue numbers refer to the chain shown, from its start.
# T1: human OX40-ECD.His Q114A (human, UniProt P43489 29-214)
# T1 construct: extracellular domain; not shown: C-terminal His-tag
# T1 sequence (looked up): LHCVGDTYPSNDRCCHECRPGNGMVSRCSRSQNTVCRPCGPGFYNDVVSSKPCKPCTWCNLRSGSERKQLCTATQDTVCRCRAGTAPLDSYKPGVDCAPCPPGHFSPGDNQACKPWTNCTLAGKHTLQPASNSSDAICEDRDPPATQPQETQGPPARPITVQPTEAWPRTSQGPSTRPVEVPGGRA
# T2: human OX40-ECD.His V53A (human, UniProt P43489 29-214)
# T2 construct: extracellular domain; not shown: C-terminal His-tag
# T2 sequence (looked up): T1 sequence (looked up) with V25A, A86Q
# T3: human OX40-ECD.His K79A (human, UniProt P43489 29-214)
# T3 construct: extracellular domain; not shown: C-terminal His-tag
# T3 sequence (looked up): T1 sequence (looked up) with K51A, A86Q
# T4: human OX40-ECD.His T62A (human, UniProt P43489 29-214)
# T4 construct: extracellular domain; not shown: C-terminal His-tag
# T4 sequence (looked up): T1 sequence (looked up) with T34A, A86Q
# T5: human OX40-ECD.His G92A (human, UniProt P43489 29-214)
# T5 construct: extracellular domain; not shown: C-terminal His-tag
# T5 sequence (looked up): T1 sequence (looked up) with G64A, A86Q
# T6: human OX40-ECD.His A111G (human, UniProt P43489 29-214)
# T6 construct: extracellular domain; not shown: C-terminal His-tag
# T6 sequence (looked up): T1 sequence (looked up) with A83G, A86Q
# T7: human OX40-ECD.His S159A (human, UniProt P43489 29-214)
# T7 construct: extracellular domain; not shown: C-terminal His-tag
# T7 sequence (looked up): T1 sequence (looked up) with A86Q, S131A
# T8: human OX40-ECD.His Y72A (human, UniProt P43489 29-214)
# T8 construct: extracellular domain; not shown: C-terminal His-tag
# T8 sequence (looked up): T1 sequence (looked up) with Y44A, A86Q
# T9: human OX40-ECD.His P172A (human, UniProt P43489 29-214)
# T9 construct: extracellular domain; not shown: C-terminal His-tag
# T9 sequence (looked up): T1 sequence (looked up) with A86Q, P144A
# T10: human OX40-ECD.His G151A (human, UniProt P43489 29-214)
# T10 construct: extracellular domain; not shown: C-terminal His-tag
# T10 sequence (looked up): T1 sequence (looked up) with A86Q, G123A
# B1: 1.134.9-u1-IgG1L (antibody, V domains shown)
# VH: QVQLQESGPGLVKPSGTLSLTCAVSGGSISSYNWWSWVRQPPGKGLEWIGEIYHGGNTNYNPSLKSRVTMSVDNSKNQFSLKLSSVTAADTAVYYCARAPGDWGGSPYFDFWGQGTLVTVSS
# VL: SSELTQDPAVSVALGQTVRITCQGDNLRTYYASWYQQKPGQAPILLIYGRNKRPSGIPDRFSGSSSGNTASLTITGAQAEDEAAYYCNSRDSSGNPVVFGGGTKLTVL
# notes: fully human IgG1, lambda
# Tests used:
# Test in all cases: ELISA, antibody coated, OX40-ECD.His mutant supernatant; relative to silent alanine substitutions;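 note: captured OX40 mutant protein detected with HRP-labelled anti-His antibody, absorbance read-out, scaled to the mean signal of control mutants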
# human OX40-ECD.His Q114A = molecular target: T1, human OX40-ECD.His Q114A
# Experimental: (§1) After interacting with the supernatant that contains quantified OX40 mutants or human OX40-ECD.His protein, HRP conjugated anti-His antibody (1:5000, GenScript-A00612, CHN) was added as detection antibody. Absorbance was normalized according to the average of control mutants.
# human OX40-ECD.His V53A = molecular target: T2, human OX40-ECD.His V53A
# Experimental: as §1
# human OX40-ECD.His K79A = molecular target: T3, human OX40-ECD.His K79A
# Experimental: as §1
# human OX40-ECD.His T62A = molecular target: T4, human OX40-ECD.His T62A
# Experimental: as §1
# human OX40-ECD.His G92A = molecular target: T5, human OX40-ECD.His G92A
# Experimental: as §1
# human OX40-ECD.His A111G = molecular target: T6, human OX40-ECD.His A111G
# Experimental: as §1
# human OX40-ECD.His S159A = molecular target: T7, human OX40-ECD.His S159A
# Experimental: as §1
# human OX40-ECD.His Y72A = molecular target: T8, human OX40-ECD.His Y72A
# Experimental: as §1
# human OX40-ECD.His P172A = molecular target: T9, human OX40-ECD.His P172A
# Experimental: as §1
# human OX40-ECD.His G151A = molecular target: T10, human OX40-ECD.His G151A
# Experimental: as §1
binder,measurement,setting,value
B1,Fold Change,human OX40-ECD.His Q114A,0.79
same,Fold Change,human OX40-ECD.His V53A,0.896
same,Fold Change,human OX40-ECD.His K79A,0.992
same,Fold Change,human OX40-ECD.His T62A,0.923
same,Fold Change,human OX40-ECD.His G92A,0.233
same,Fold Change,human OX40-ECD.His A111G,0.853
same,Fold Change,human OX40-ECD.His S159A,0.458
same,Fold Change,human OX40-ECD.His Y72A,0.384
same,Fold Change,human OX40-ECD.His P172A,1.02
same,Fold Change,human OX40-ECD.His G151A,0.742
